Laboratory results: patent publication US20080132681A1
“And” between values parts separate entries of the source, which are not always exact repeats. Equal values may be shown once.

Target: IFNα receptor 2 (IFNAR2) on THP-1 cells (human) (UniProt P48551)
Assay: cell-based or functional assay

Chain of UniProt P48551 (P48551 27-515): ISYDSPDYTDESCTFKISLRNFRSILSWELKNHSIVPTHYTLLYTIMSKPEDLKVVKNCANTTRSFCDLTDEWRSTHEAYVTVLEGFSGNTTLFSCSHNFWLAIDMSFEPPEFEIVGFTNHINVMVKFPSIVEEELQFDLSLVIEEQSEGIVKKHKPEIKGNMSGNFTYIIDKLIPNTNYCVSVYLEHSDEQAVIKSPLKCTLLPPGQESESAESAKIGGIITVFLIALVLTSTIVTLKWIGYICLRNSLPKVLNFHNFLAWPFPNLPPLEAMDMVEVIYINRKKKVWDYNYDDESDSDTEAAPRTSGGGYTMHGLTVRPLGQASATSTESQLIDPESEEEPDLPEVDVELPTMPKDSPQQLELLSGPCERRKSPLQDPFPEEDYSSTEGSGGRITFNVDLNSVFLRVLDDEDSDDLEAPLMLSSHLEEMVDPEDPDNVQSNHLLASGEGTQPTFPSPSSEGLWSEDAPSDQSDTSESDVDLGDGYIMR

- pSTAT1 EC50 (THP-1 cells): 30 pM and 34.8 pM
Substance: 6HisC1G/C98 IFNα-2a + limitin loop (from UniProt P01563 25-188) (ligand)
